From paper PMC2862694 (Cellular signalling, 2010)

B1: Gαi/q chimera (other)
chain: MGCTLSAEDKAAVERSKMIDRNLREDGERSRRELKLLLLGTGESGKSTFIKQMRIIHGSGYSDEDKRGFTKLVYQNIFTAMQAMIRAMDTLKIPYKYEHNKAHAQLVREVDVEKVSAFENPYVDAIKSLWNDPGIQECYDRRREYQLSDSTKYYLNDLDRVADPSYLPTQQDVLRVRVPTTGIIEYPFDLQSVIFRMVDVGGQRSERRKWIHCFENVTSIMFLVALSEYDQVLVESDNENRMEESKALFRTIITYPWFQNSSVILFLNKKDLLEEKIMYSHLVDYFPEYDGPQRDAQAAREFILKMFVDLNPDSDKIIYSHFTCATDTENIRFVFAAVKDTILQLNLKEYNLV
modifications: biotinylated (bead-bound in FCPIA)

Legend:
Test in all cases: flow cytometry protein interaction assay
[1] = molecular target: p63RhoGEF DH/PH 6A alanine insertion mutant (human, UniProt Q86VW2-1 149-502, 6A: 6 alanines inserted after Thr338)
[2] = molecular target: p63RhoGEF DH/PH 7A alanine insertion mutant (human, UniProt Q86VW2-1 149-502, 7A: 7 alanines inserted after Thr338)
[3] = molecular target: p63RhoGEF DH/PH 4A alanine insertion mutant (human, UniProt Q86VW2-1 149-502, 4A: 4 alanines inserted after Thr338)
[4] = molecular target: p63RhoGEF DH/PH 1A alanine insertion mutant (human, UniProt Q86VW2-1 149-502, 1A: 1 alanine inserted after Thr338)
[5] = molecular target: p63RhoGEF DH/PH 5A alanine insertion mutant (human, UniProt Q86VW2-1 149-502, 5A: 5 alanines inserted after Thr338)
[6] = molecular target: p63RhoGEF DH/PH 3A alanine insertion mutant (human, UniProt Q86VW2-1 149-502, 3A: 3 alanines inserted after Thr338)
[7] = molecular target: p63RhoGEF DH/PH 2A alanine insertion mutant (human, UniProt Q86VW2-1 149-502, 2A: 2 alanines inserted after Thr338)
[8] = molecular target: T1, RhoA (UniProt P61586 1-193, biotinylated where bead-bound; Alexa Fluor 532 label where AF-labeled)
T1 sequence (P61586 whole entry): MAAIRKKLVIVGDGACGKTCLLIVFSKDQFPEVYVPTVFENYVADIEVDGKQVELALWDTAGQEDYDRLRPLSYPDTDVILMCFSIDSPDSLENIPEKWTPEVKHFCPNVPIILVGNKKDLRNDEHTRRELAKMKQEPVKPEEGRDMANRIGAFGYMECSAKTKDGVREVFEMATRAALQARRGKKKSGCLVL

[9] = molecular target: B1
[10] = molecular target: T1, RhoA; remark: listed apart in the source

Binder	Ki [8] [nM]	Ki [9] [nM]	further results
B1			binding result [1]: binds; binding result [2]: binds; binding result [3]: binds; binding result [4]: binds; binding result [5]: binds; binding result [6]: binds; binding result [7]: binds
p63RhoGEF DH/PH-G340I (domain or fragment) not shown	1200	670	
p63RhoGEF DH/PH-M336S (domain or fragment) not shown		68	
p63RhoGEF DH/PH-P330L (domain or fragment) not shown		40	
p63RhoGEF DH/PH-R341A (domain or fragment, Alexa Fluor 532 label in direct binding to RhoA; unlabeled as competitor) not shown	190	75	
p63RhoGEF DH/PH-R341E (domain or fragment, Alexa Fluor 532 label in direct binding to RhoA; unlabeled as competitor) not shown	94	120	
p63RhoGEF DH domain (residues 149-338) (domain or fragment) not shown	300		
Gαi/q bound to p63RhoGEF DH/PH wild type (complex, biotinylated (bead-bound)) chain 1: MGCTLSAEDKAAVERSKMIDRNLREDGERSRRELKLLLLGTGESGKSTFIKQMRIIHGSGYSDEDKRGFTKLVYQNIFTAMQAMIRAMDTLKIPYKYEHNKAHAQLVREVDVEKVSAFENPYVDAIKSLWNDPGIQECYDRRREYQLSDSTKYYLNDLDRVADPSYLPTQQDVLRVRVPTTGIIEYPFDLQSVIFRMVDVGGQRSERRKWIHCFENVTSIMFLVALSEYDQVLVESDNENRMEESKALFRTIITYPWFQNSSVILFLNKKDLLEEKIMYSHLVDYFPEYDGPQRDAQAAREFILKMFVDLNPDSDKIIYSHFTCATDTENIRFVFAAVKDTILQLNLKEYNLV chain 2: not shown			Kd [10]: 17 nM
p63RhoGEF DH/PH-Δ(397-402) (domain or fragment) not shown		48	
